From US9738726B2, “HER2-specific monoclonal antibodies and conjugates thereof” (The United States of America, as represented by the …, priority 2013, dated 2017) come the findings set out here.

Entries after “also recorded” stand apart in the source; their conditions may differ. Where a SMILES comes first, the peptide text is derived from it. [ ]: non-standard residue; d: D form. The star is where a group is joined. ξ: configuration not given here. Dolaproine = CO[C@@H]([C@@H]1CCCN1)[C@@H](C)C(=O)O; Dil = CC[C@H](C)[C@H](NC)[C@@H](CC(=O)O)OC; NMe2Val = CC(C)[C@@H](C(=O)*)N(C)C; ξV = CC(C)C(N)C(=O)O; X1 = NOCCOCCOCCN*

The test system of series [1] is MCF-7 cells (do not express Her2). Description: In vitro cytotoxicity assay, MCF-7 cells. Format: cell-based. The conditions noted are these: 72 hours, FIG. 7B. The procedure: (§1) In Vitro Cytotoxicity Assay
(§2) SKBR3, MCF-7 and JIMT-1 cells were cultured and assayed in DMEM (Life Technologies) with 10% (vol/vol) FBS (Gibco), 100 IU/mL penicillin, and 100 µg/mL streptomycin (Life Technologies). For the cytotoxicity assays, the cancer cell lines were plated in 96-well plates at ˜1,000 cells in 70 μL per well in culture medium and incubated overnight at 37° C. and 5% CO2. Drugs (m860 IgG1, m860 ADC and free drug nAF) were filtered (0.22 μm; Millipore) and 30 μl of serially diluted drugs in culture medium were added into the wells in duplicate and incubated at 37° C. for 72 hours. Colorimetric reagent (Promega) was then added to each well. After a 3-hour incubation at 37° C., the absorbance at 490 nm was measured, and IC50 was determined by GraphPad Prism.

In series [2] the target is FcγRIII (CD16). Description: Surface plasmon resonance (Biacore) binding to FcγRIII (CD16). Particulars: SPR, FcγRIII immobilized on CM5 chip, 25° C., 1:1 model. The procedure:
(§3) Comparison of the Binding Affinities of m860 and m860 ADC to FcγRIII (CD16) and FcγRI (CD64) Measured by Surface Plasmon Resonance
(§4) Interactions between the antibodies and CD16 and CD64 were analyzed by surface plasmon resonance technology using a Biacore™ X100 instrument (GE healthcare). CD16 or CD64 was covalently immobilized onto a sensor chip (CM5) using carbodiimide coupling chemistry. A control reference surface was prepared for nonspecific binding and refractive index changes. For analysis of the kinetics of interactions, varying concentrations of antibodies were injected at flow rate of 30 μL/min using running buffer containing 10 mmol/L HEPES, 150 mmol/L NaCl, 3 mmol/L EDTA, and 0.05% Surfactant P-20 (pH=7.4). The association and dissociation phase data were fitted simultaneously to a 1:1 model by using BIAevaluation 3.2. All the experiments were done at 25° C.

The test system of series [3] is JIMT-1 cells (moderate Her2 expression, trastuzumab-resistant patient). Description: In vitro cytotoxicity assay, JIMT-1 cells. The series is classed as cell-based. The conditions noted are these: 72 hours, FIG. 7C. The procedure: as §1, §2
Series [4] concerns the target T1, Her2-ECD-Fc fusion protein (Homo sapiens, UniProt P04626).
T1 construct: three rounds of panning against a recombinant Her2 protein ectodomain; purchased R&D systems
Description: Phage ELISA screening of clones panned against Her2-ECD-Fc. Particulars: five unique clones after third round of biopanning. Format: binding. Here is the method:
A naïve human Fab phage display library (a total of about […] members), constructed from peripheral blood B cells of 10 healthy donors, was used for selection of Fabs against Her2-ECD-Fc fusion protein (R&D systems) conjugated to magnetic beads (DYNABEADS™ M-270 epoxy, Invitrogen). […] After each round of incubation, the beads were washed 5 times for the first round and 15 times for the later rounds with phosphate-buffered saline containing 0.05% Tween 20 (PBST) to remove nonspecifically bound phage. The bead-bound phage were mixed with TG1 cells for 1 hour at 37° C., and the phage was amplified from the infected cells and used in the next round of biopanning. After the third round of biopanning, 190 clones were randomly picked and monoclonal phage was prepared and used for phage ELISA screening to identify the positive binders. […] The nucleotide and amino acid sequences of the m860 VH and VL domains are set forth herein as SEQ ID NOs: 1-4.
(In general: ELISA stands for enzyme-linked immunosorbent assay.)

The target in series [5] is Her2 (Homo sapiens, UniProt P04626). Description: Competition with Herceptin / epitope comparison. The series is classed as binding.
Series [6] relates to SKBR3 cells (overexpress Her2). Put plainly: In vitro cytotoxicity assay, SKBR3 cells. The series is classed as cell-based. The conditions noted are these: 72 hours, FIG. 7A, listed as WT m860 IgG1. Here is the method: as §1, §2
Series [7] concerns the target FcγRI (CD64) (Homo sapiens, UniProt P12314). Put plainly: Surface plasmon resonance (Biacore) binding to FcγRI (CD64). Particulars: SPR, FcγRI immobilized on CM5 chip, 25° C., 1:1 model. Here is the method: as §3, §4
(In SPR one partner is held on a chip, and binding of the other changes the refractive index at the surface.)

Series [8] addresses T2, cell surface-associated Her2 (Homo sapiens, UniProt P04626).
T2 construct: endogenous in cells
Description: Binding to cell surface-associated Her2. The conditions noted are these: compared with trastuzumab (Herceptin).

Series [9] addresses T3, Her2 on SKBR3 cells (Homo sapiens, UniProt P04626).
T3 construct: SKBR3 breast cancer cells, which overexpress Her2, were detached in cell dissociation buffer; endogenous in cells; host or cells: SKBR3 breast cancer cells
Put plainly: Flow cytometry binding to Her2 on SKBR3 cells. The conditions noted are these: FIGS. 6A-6B.
Description: SKBR3 breast cancer cells, which overexpress Her2, were detached in cell dissociation buffer and rinsed in PBS. […] Unbound antibodies were washed away with PBSA. The secondary antibody, goat anti-human IgG conjugated with PE (Sigma), was diluted at 1:100 and incubated with cells on ice for 30 minutes. Cells were washed and resuspended in PBSA buffer for flow cytometry analysis on FACSCalibur (Becton Dickinson).

Sequence of FcγRI (CD64) (P12314 16-374, species assumed): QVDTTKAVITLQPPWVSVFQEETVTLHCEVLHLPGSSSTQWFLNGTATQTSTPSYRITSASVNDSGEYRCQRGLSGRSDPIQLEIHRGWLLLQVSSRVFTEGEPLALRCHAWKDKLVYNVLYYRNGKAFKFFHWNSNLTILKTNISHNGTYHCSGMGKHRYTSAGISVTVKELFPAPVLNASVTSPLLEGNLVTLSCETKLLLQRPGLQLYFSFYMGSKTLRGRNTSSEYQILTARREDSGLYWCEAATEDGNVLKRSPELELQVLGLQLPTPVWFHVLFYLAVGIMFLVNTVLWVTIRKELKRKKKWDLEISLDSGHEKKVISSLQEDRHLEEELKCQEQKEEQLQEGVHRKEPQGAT

`CC[C@H](C)[C@@H]([C@@H](CC(=O)N1CCC[C@H]1[C@H](OC)[C@@H](C)C(=O)N[C@@H](Cc1ccccc1)C(=O)NCCOCCOCCON)OC)N(C)C(=O)C(NC(=O)[C@H](C(C)C)N(C)C)C(C)C` (stereo partly shown) [nAF, Auristatin F with a non-cleavable linker attached at the C-terminus] (NMe2Val-[ξV][Dil][Dolaproine]F-X1): the cytotoxicity entry in series [1] was “significant cytotoxicity”.

B1: M860 IgG1: Her2-specific human monoclonal antibody from naïve phage display Fab library, VH SEQ ID NO: 2, VL SEQ ID NO: 4, converted to full size human IgG1 (antibody, V domains shown)
VH: EVQLVQSGAEVKKPGESLKISCKGSGYSFTSYWIGWVRQMPGKGLEWMGIIYPGDCDRSDTRYSPSFQGQVTISADKSISTAYLQWSSLKASDTAMYYCARQYSGYDRYYFDYWGQGTLVTVSS
VL: QTVVTQEPSFSVSPGGTVTLTCGLNSGSVSTRHYPSWYQQTPGQAPRTLIYSTDICDRRSSGAPSHISGSILGNKAALTITGAQADDASDYYCALYLGNGIAVFGSGTKVTVLG
modifications: IgG1 constant regions without entry
Usually Kd stands for the free concentration of one partner at which half of the binding sites on the other are occupied at equilibrium, for simple one-to-one binding. A high value points to lower affinity. On to B1, for which, in series [2], the Kd is 1500 nM, the ka was 11080 M⁻¹ s⁻¹ and the kd stood at 0.01608 s⁻¹. Moreover, the cytotoxicity entry in [3] is “little effect”. In series [4], the “binding activity in phage ELISA screening” value is given as “highest binding activity”. The “competition with Herceptin / epitope relative to trastuzumab” value in series [5] was “binds to a different epitope”. Further, the cytotoxicity result in series [6] was “did not exhibit any cytotoxicity; also recorded: did not show any cytotoxicity”. In series [7], the Kd is 22.5 nM, the ka came to 44790 M⁻¹ s⁻¹ and the kd amounted to 0.001007 s⁻¹. In addition, in [8], the “affinity for cell surface-associated Her2” value was “comparable to that of trastuzumab”. The “binding activity to Her2 on SKBR3 cells before and after nAF conjugation” value in [9] is reported as “not impacted by nAF conjugation”.
